Results taken from article PMC10404701.

Target: TTLL7-treated microtubules (mouse brain tubulin) (mouse (endogenous in brain)) (UniProt P68369)
Test: TIRF microscopy, single-molecule imaging (kymographs, dwell time); MTs immobilised on a cover glass by a tubulin antibody; Kif5c-GFP in imaging buffer (BRB80, 1 mM ATP, 20 μM taxol); 35 °C; dwell times from kymographs, events shorter than 0.2 s left out, single exponential fit

UniProt P68369, sequence (P68369 whole entry, chain 1 of 2): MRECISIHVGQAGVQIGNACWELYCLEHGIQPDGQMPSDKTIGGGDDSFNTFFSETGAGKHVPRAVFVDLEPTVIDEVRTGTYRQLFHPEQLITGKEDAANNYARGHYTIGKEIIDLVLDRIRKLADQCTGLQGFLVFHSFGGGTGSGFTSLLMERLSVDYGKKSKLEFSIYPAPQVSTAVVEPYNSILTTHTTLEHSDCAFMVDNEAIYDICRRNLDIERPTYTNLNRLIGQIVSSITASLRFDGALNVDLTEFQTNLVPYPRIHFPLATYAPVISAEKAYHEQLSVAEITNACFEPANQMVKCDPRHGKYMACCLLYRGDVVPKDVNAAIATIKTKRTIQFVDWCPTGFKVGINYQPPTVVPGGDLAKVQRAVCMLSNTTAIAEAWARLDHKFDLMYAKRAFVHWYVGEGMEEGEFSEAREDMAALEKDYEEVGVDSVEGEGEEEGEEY
UniProt P68369, sequence (Q7TMM9 whole entry, chain 2 of 2, further chain): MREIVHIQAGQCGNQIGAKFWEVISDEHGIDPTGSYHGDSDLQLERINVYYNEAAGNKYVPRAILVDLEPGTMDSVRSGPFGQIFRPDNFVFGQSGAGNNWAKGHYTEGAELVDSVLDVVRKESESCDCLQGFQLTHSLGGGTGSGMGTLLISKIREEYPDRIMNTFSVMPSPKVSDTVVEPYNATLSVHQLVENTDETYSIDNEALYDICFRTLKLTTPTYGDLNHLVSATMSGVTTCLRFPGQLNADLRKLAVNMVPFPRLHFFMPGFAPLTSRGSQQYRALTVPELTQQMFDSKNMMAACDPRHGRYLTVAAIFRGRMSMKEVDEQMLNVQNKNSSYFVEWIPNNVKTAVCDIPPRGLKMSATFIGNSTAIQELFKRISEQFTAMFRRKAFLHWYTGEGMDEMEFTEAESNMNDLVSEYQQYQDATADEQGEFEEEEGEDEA

## Kif5c-GFP (amino acids: 1–430) (from UniProt P56536 1-430) (domain or fragment)
  dwell time: 0.5 s
